The results in this text go back to patent US20140363428A1 (Chugai, published 2014).

To fix the notation:
B1: F1615 (antibody)
chain 1: QVQLQESGPGLVKPSETLSLTCAVSGHSISHDHAWSWVRQPPGEGLEWIGFISYSGITNYNPSLQGRVTISRDNSKNTLYLQMNSLRAEDTAVYYCARSLARTTAMDYWGEGTLVTVSSASTKGPSVFPLAPSSKSTSGGTAALGCLVKDYFPEPVTVSWNSGALTSGVHTFPAVLQSSGLYSLSSVVTVPSSSLGTQTYICNVNHKPSNTKVDKKVEPKSCDKTHTCPPCPAPELRGGPKVFLFPPKPKDTLYITLEPIVTCVVVDVSHEDPEVKFNWYVDGVEVHNAKTKPREEQYNSTYRVVSVLTVLHQDWLNGKEYKCKVSNKALPAPIEKTISKAKGQPREPQVYTLPPSRDELTKNQVSLTCLVKGFYPSDIAVEWESNGQPENNYKTTPPVLDSDGSFFLYSKLTVDKSRWQQGNVFSCSVMHEALDYHVTRKDLSLSP
chain 2: DIQMTQSPSSLSASVGDSVTITCQASTDISSHLNWYQQKPGKAPELLIYYGSHLLSGVPSRFSGSGSGTDFTFTISSLEAEDAATYYCGQGNRLPYTFGQGTKVEIERTVAAPSVFIFPPSDEQLKSGTASVVCLLNNFYPREAKVQWKVDNALQSGNSQESVTEQDSKDSTYSLSSTLTLSKADYEKHKVYACEVTHQGLSSPVTKSFNRGEC
B2: F1567 (antibody)
chain 1: QVQLQESGPGLVKPSETLSLTCAVSGHSISHDHAWSWVRQPPGEGLEWIGFISYSGITNYNPSLQGRVTISRDNSKNTLYLQMNSLRAEDTAVYYCARSLARTTAMDYWGEGTLVTVSSASTKGPSVFPLAPSSKSTSGGTAALGCLVKDYFPEPVTVSWNSGALTSGVHTFPAVLQSSGLYSLSSVVTVPSSSLGTQTYICNVNHKPSNTKVDKKVEPKSCDKTHTCPPCPAPELRGGPKVFLFPPKPKDTLYITREPEVTCVVVDVSHEDPEVKFNWYVDGVEVHNAKTKPREEQYNSTYRVVSVLTVLHQDWLNGKEYKCKVSNKALPAPIEKTISKAKGQPREPQVYTLPPSRDELTKNQVSLTCLVKGFYPSDIAVEWESNGQPENNYKTTPPVLDSDGSFFLYSKLTVDKSRWQQGNVFSCSVMHEALAYHVTRKELSLSP
chain 2: DIQMTQSPSSLSASVGDSVTITCQASTDISSHLNWYQQKPGKAPELLIYYGSHLLSGVPSRFSGSGSGTDFTFTISSLEAEDAATYYCGQGNRLPYTFGQGTKVEIERTVAAPSVFIFPPSDEQLKSGTASVVCLLNNFYPREAKVQWKVDNALQSGNSQESVTEQDSKDSTYSLSSTLTLSKADYEKHKVYACEVTHQGLSSPVTKSFNRGEC
B3: F1642 (antibody)
chain 1: QVQLQESGPGLVKPSETLSLTCAVSGHSISHDHAWSWVRQPPGEGLEWIGFISYSGITNYNPSLQGRVTISRDNSKNTLYLQMNSLRAEDTAVYYCARSLARTTAMDYWGEGTLVTVSSASTKGPSVFPLAPSSKSTSGGTAALGCLVKDYFPEPVTVSWNSGALTSGVHTFPAVLQSSGLYSLSSVVTVPSSSLGTQTYICNVNHKPSNTKVDKKVEPKSCDKTHTCPPCPAPELRGGPKVFLFPPKPKDTLYITREPEVTCVVVDVSHEDPEVKFNWYVDGVEVHNAKTKPREEQYNSTYRVVSVLTVLHQDWLNGKEYKCKVSNKALPAPIEKTISKAKGQPREPQVYTLPPSRDELTKNQVSLTCLVKGFYPSDIAVEWESNGQPENNYKTTPPVLDSDGSFFLYSKLTVDKSRWQQGNVFSCSVMHEALAYHVTRKDLSLSP
chain 2: DIQMTQSPSSLSASVGDSVTITCQASTDISSHLNWYQQKPGKAPELLIYYGSHLLSGVPSRFSGSGSGTDFTFTISSLEAEDAATYYCGQGNRLPYTFGQGTKVEIERTVAAPSVFIFPPSDEQLKSGTASVVCLLNNFYPREAKVQWKVDNALQSGNSQESVTEQDSKDSTYSLSSTLTLSKADYEKHKVYACEVTHQGLSSPVTKSFNRGEC
B4: F1641 (antibody)
chain 1: QVQLQESGPGLVKPSETLSLTCAVSGHSISHDHAWSWVRQPPGEGLEWIGFISYSGITNYNPSLQGRVTISRDNSKNTLYLQMNSLRAEDTAVYYCARSLARTTAMDYWGEGTLVTVSSASTKGPSVFPLAPSSKSTSGGTAALGCLVKDYFPEPVTVSWNSGALTSGVHTFPAVLQSSGLYSLSSVVTVPSSSLGTQTYICNVNHKPSNTKVDKKVEPKSCDKTHTCPPCPAPELRGGPKVFLFPPKPKDTLYITREPEVTCVVVDVSHEDPEVKFNWYVDGVEVHNAKTKPREEQYNSTYRVVSVLTVLHQDWLNGKEYKCKVSNKALPAPIEKTISKAKGQPREPQVYTLPPSRDELTKNQVSLTCLVKGFYPSDIAVEWESNGQPENNYKTTPPVLDSDGSFFLYSKLTVDKSRWQQGNVFSCSVMHEALAYHVTKKELSLSP
chain 2: DIQMTQSPSSLSASVGDSVTITCQASTDISSHLNWYQQKPGKAPELLIYYGSHLLSGVPSRFSGSGSGTDFTFTISSLEAEDAATYYCGQGNRLPYTFGQGTKVEIERTVAAPSVFIFPPSDEQLKSGTASVVCLLNNFYPREAKVQWKVDNALQSGNSQESVTEQDSKDSTYSLSSTLTLSKADYEKHKVYACEVTHQGLSSPVTKSFNRGEC
B5: F1576 (antibody)
chain 1: QVQLQESGPGLVKPSETLSLTCAVSGHSISHDHAWSWVRQPPGEGLEWIGFISYSGITNYNPSLQGRVTISRDNSKNTLYLQMNSLRAEDTAVYYCARSLARTTAMDYWGEGTLVTVSSASTKGPSVFPLAPSSKSTSGGTAALGCLVKDYFPEPVTVSWNSGALTSGVHTFPAVLQSSGLYSLSSVVTVPSSSLGTQTYICNVNHKPSNTKVDKKVEPKSCDKTHTCPPCPAPELRGGPKVFLFPPKPKDTLYITREPEVTCVVVDVSHEDPEVKFNWYVDGVEVHNAKTKPREEQYNSTYRVVSVLTVLHQDWLNGKEYKCKVSNKALPAPIEKTISKAKGQPREPQVYTLPPSRDELTKNQVSLTCLVKGFYPSDIAVEWESNGQPENNYKTTPPVLDSDGSFFLYSKLTVDKSRWQQGNVFSCSVMHEALPYHVTRKELSLSP
chain 2: DIQMTQSPSSLSASVGDSVTITCQASTDISSHLNWYQQKPGKAPELLIYYGSHLLSGVPSRFSGSGSGTDFTFTISSLEAEDAATYYCGQGNRLPYTFGQGTKVEIERTVAAPSVFIFPPSDEQLKSGTASVVCLLNNFYPREAKVQWKVDNALQSGNSQESVTEQDSKDSTYSLSSTLTLSKADYEKHKVYACEVTHQGLSSPVTKSFNRGEC
B6: F1572 (antibody)
chain 1: QVQLQESGPGLVKPSETLSLTCAVSGHSISHDHAWSWVRQPPGEGLEWIGFISYSGITNYNPSLQGRVTISRDNSKNTLYLQMNSLRAEDTAVYYCARSLARTTAMDYWGEGTLVTVSSASTKGPSVFPLAPSSKSTSGGTAALGCLVKDYFPEPVTVSWNSGALTSGVHTFPAVLQSSGLYSLSSVVTVPSSSLGTQTYICNVNHKPSNTKVDKKVEPKSCDKTHTCPPCPAPELRGGPKVFLFPPKPKDTLYITREPEVTCVVVDVSHEDPEVKFNWYVDGVEVHNAKTKPREEQYNSTYRVVSVLTVLHQDWLNGKEYKCKVSNKALPAPIEKTISKAKGQPREPQVYTLPPSRDELTKNQVSLTCLVKGFYPSDIAVEWESNGQPENNYKTTPPVLDSDGSFFLYSKLTVDKSRWQQGNVFSCSVMHEALKYHVTRKELSLSP
chain 2: DIQMTQSPSSLSASVGDSVTITCQASTDISSHLNWYQQKPGKAPELLIYYGSHLLSGVPSRFSGSGSGTDFTFTISSLEAEDAATYYCGQGNRLPYTFGQGTKVEIERTVAAPSVFIFPPSDEQLKSGTASVVCLLNNFYPREAKVQWKVDNALQSGNSQESVTEQDSKDSTYSLSSTLTLSKADYEKHKVYACEVTHQGLSSPVTKSFNRGEC
B7: F1578 (antibody)
chain 1: QVQLQESGPGLVKPSETLSLTCAVSGHSISHDHAWSWVRQPPGEGLEWIGFISYSGITNYNPSLQGRVTISRDNSKNTLYLQMNSLRAEDTAVYYCARSLARTTAMDYWGEGTLVTVSSASTKGPSVFPLAPSSKSTSGGTAALGCLVKDYFPEPVTVSWNSGALTSGVHTFPAVLQSSGLYSLSSVVTVPSSSLGTQTYICNVNHKPSNTKVDKKVEPKSCDKTHTCPPCPAPELRGGPKVFLFPPKPKDTLYITREPEVTCVVVDVSHEDPEVKFNWYVDGVEVHNAKTKPREEQYNSTYRVVSVLTVLHQDWLNGKEYKCKVSNKALPAPIEKTISKAKGQPREPQVYTLPPSRDELTKNQVSLTCLVKGFYPSDIAVEWESNGQPENNYKTTPPVLDSDGSFFLYSKLTVDKSRWQQGNVFSCSVMHEALRYHVTRKELSLSP
chain 2: DIQMTQSPSSLSASVGDSVTITCQASTDISSHLNWYQQKPGKAPELLIYYGSHLLSGVPSRFSGSGSGTDFTFTISSLEAEDAATYYCGQGNRLPYTFGQGTKVEIERTVAAPSVFIFPPSDEQLKSGTASVVCLLNNFYPREAKVQWKVDNALQSGNSQESVTEQDSKDSTYSLSSTLTLSKADYEKHKVYACEVTHQGLSSPVTKSFNRGEC
B8: F1579 (antibody)
chain 1: QVQLQESGPGLVKPSETLSLTCAVSGHSISHDHAWSWVRQPPGEGLEWIGFISYSGITNYNPSLQGRVTISRDNSKNTLYLQMNSLRAEDTAVYYCARSLARTTAMDYWGEGTLVTVSSASTKGPSVFPLAPSSKSTSGGTAALGCLVKDYFPEPVTVSWNSGALTSGVHTFPAVLQSSGLYSLSSVVTVPSSSLGTQTYICNVNHKPSNTKVDKKVEPKSCDKTHTCPPCPAPELRGGPKVFLFPPKPKDTLYITREPEVTCVVVDVSHEDPEVKFNWYVDGVEVHNAKTKPREEQYNSTYRVVSVLTVLHQDWLNGKEYKCKVSNKALPAPIEKTISKAKGQPREPQVYTLPPSRDELTKNQVSLTCLVKGFYPSDIAVEWESNGQPENNYKTTPPVLDSDGSFFLYSKLTVDKSRWQQGNVFSCSVMHEALSYHVTRKELSLSP
chain 2: DIQMTQSPSSLSASVGDSVTITCQASTDISSHLNWYQQKPGKAPELLIYYGSHLLSGVPSRFSGSGSGTDFTFTISSLEAEDAATYYCGQGNRLPYTFGQGTKVEIERTVAAPSVFIFPPSDEQLKSGTASVVCLLNNFYPREAKVQWKVDNALQSGNSQESVTEQDSKDSTYSLSSTLTLSKADYEKHKVYACEVTHQGLSSPVTKSFNRGEC
B9: F1643 (antibody)
chain 1: QVQLQESGPGLVKPSETLSLTCAVSGHSISHDHAWSWVRQPPGEGLEWIGFISYSGITNYNPSLQGRVTISRDNSKNTLYLQMNSLRAEDTAVYYCARSLARTTAMDYWGEGTLVTVSSASTKGPSVFPLAPSSKSTSGGTAALGCLVKDYFPEPVTVSWNSGALTSGVHTFPAVLQSSGLYSLSSVVTVPSSSLGTQTYICNVNHKPSNTKVDKKVEPKSCDKTHTCPPCPAPELRGGPKVFLFPPKPKDTLYITREPEVTCVVVDVSHEDPEVKFNWYVDGVEVHNAKTKPREEQYNSTYRVVSVLTVLHQDWLNGKEYKCKVSNKALPAPIEKTISKAKGQPREPQVYTLPPSRDELTKNQVSLTCLVKGFYPSDIAVEWESNGQPENNYKTTPPVLDSDGSFFLYSKLTVDKSRWQQGNVFSCSVMHEALAYHVTKKDLSLSP
chain 2: DIQMTQSPSSLSASVGDSVTITCQASTDISSHLNWYQQKPGKAPELLIYYGSHLLSGVPSRFSGSGSGTDFTFTISSLEAEDAATYYCGQGNRLPYTFGQGTKVEIERTVAAPSVFIFPPSDEQLKSGTASVVCLLNNFYPREAKVQWKVDNALQSGNSQESVTEQDSKDSTYSLSSTLTLSKADYEKHKVYACEVTHQGLSSPVTKSFNRGEC

In this assay the target is T1, soluble human FcRn (human, UniProt P55899 24-297; P61769 21-119).
T1 construct: Heterodimer of alpha chain and beta2-microglobulin; also called hFcRn
T1 sequence (P55899 24-297 limits assumed, chain 1 of 2): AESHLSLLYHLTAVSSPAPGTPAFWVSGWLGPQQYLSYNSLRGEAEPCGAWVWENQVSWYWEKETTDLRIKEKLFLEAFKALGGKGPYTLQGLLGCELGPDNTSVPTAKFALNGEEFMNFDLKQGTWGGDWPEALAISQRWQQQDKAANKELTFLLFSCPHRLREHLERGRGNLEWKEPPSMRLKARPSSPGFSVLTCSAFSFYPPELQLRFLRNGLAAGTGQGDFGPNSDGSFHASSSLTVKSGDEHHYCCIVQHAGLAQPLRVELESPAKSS
T1 sequence (P61769 21-119 limits assumed, chain 2 of 2): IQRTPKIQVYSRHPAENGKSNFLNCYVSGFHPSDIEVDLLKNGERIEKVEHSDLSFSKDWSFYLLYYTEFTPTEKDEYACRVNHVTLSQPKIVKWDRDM
Put plainly: SPR (Biacore), pH 7.0.
As to B1, the affinity, expressed as Kd, was 60 nM.
Next, B2: 48 nM; B3: 41 nM.
Consider B4, for which binding was put at a Kd of 41 nM.
Next, B5: 43 nM; B6: 41 nM; B7: 46 nM.
As for B8, binding was characterised by a dissociation constant (Kd) of 54 nM.
For B9, the affinity, expressed as Kd, was 39 nM.
